The data set is described as follows: In vivo biodistribution after intravenous administration (IVIS). The arrangement: species or system C57BL/6 mice. The settings on record: 5 min (0.08 hour) after administration. Here is the method:
(FIG. 3A) IVIS images of excised mouse lungs 5 min (0.08 hours) after the administration of OVA protein only and OVA/Erythrocyteplex. […] OVA was used for the fluorescence signal. (FIG. 3B) Biodistribution of OVA only and OVA/Erythrocyteplex 5 min after intravenous (IV) administration. (FIG. 3C) Biodistribution of OVA only and OVA/Erythrocyteplex 6 hours after IV administration. (FIG. 3D) Biodistribution of OVA only and OVA/Erythrocyteplex 24 hours after IV administration. (FIG. 3E) Lung to liver ratio of OVA delivered by the control counterpart and OVA/Erythrocyteplex throughout the entire measurement window. (FIG. 3F) Remaining OVA delivered by Erythrocyteplex through the time after 24 hours post-injection. […] Variation is represented by SE (error bars) from three independent replicates for all data points. (FIG. 3G) Confocal florescence microscopy images of lung vascular capillary sections 5 min. […]
Female 50-56 days old C57BL/6 mice (n=3-6 per group) were administered intravenously using a with OVA-Erythrocyteplex coated with 30 ug/mL OVA. […] Each organ was placed in a 6 well tissue culture plate (Falcon); blood (50 μL) was placed in a heparinized microcapillary tube (Drummond Scientific) and far red fluorescence signal for each organ was imaged using Perkin Elmer IVIS small animal imaging system. Far red signals were quantified using LivingImage software.

B1: free OVA: free ovalbumin protein, control counterpart (protein, UniProt P01012 2-386, looked up)
Ovalbumin: GSIGAASMEFCFDVFKELKVHHANENIFYCPIAIMSALAMVYLGAKDSTRTQINKVVRFDKLPGFGDSIEAQCGTSVNVHSSLRDILNQITKPNDVYSFSLASRLYAEERYPILPEYLQCVKELYRGGLEPINFQTAADQARELINSWVESQTNGIIRNVLQPSSVDSQTAMVLVNAIVFKGLWEKAFKDEDTQAMPFRVTEQESKPVQMMYQIGLFRVASMASEKMKILELPFASGTMSMLVLLPDEVSGLEQLESIINFEKLTEWTSSNVMEERKIKVYLPRMKMEEKYNLTSVLMAMGITDVFSSSANLSGISSAESLKISQAVHAAHAEINEAGREVVGSAEAGVDAASVSEEFRADHPFLFCIKHIATNAVLFFGRCVSP
With B1, the “signal in the liver” value is “strong signal intensities in the liver”.
